Measured values: patent publication US20230052168A1 (ROYAL COLLEGE OF SURGEIONS IN IRELAND, published 2023)
Residue numbers refer to the chain shown, from its start. Numbers in names are those of the source.

B1: h-sEPCR^Snoop (recombinant human soluble endothelial cell protein C receptor with GSGGSG linker, SnoopTag and C-terminal His-tag) (receptor)
chain: SQDASDGLQRLHMLQISYFRDPYHVWYQGNASLGGHLTHVLEGPDTNTTIIQLQPLQEPESWARTQSGLQSYLLQFHGLVRLVHQERTLAFPLTIRCFLGCELPPEGSRAHVFFEVAVNGSSFVSFRPERALWQADTQVTSGVVTFTLQQLNAYNRTRYELREFLEDTCVQYVQKHISAENTKGSQTSRSYTSGSGGSGKLGDIEFIKVNKHHHHHH
notes: Expressed in HEK293 cells, purified on nickel; The printed entry still carries the N-terminal signal peptide; also called human sEPCR^Snoop; r-sEPCR
B2: h-sEPCR-E86A^Snoop (receptor)
chain: B1 chain with E86A

How the values were obtained:
protein C (zymogen) [1] = target: T1, protein C (zymogen) (UniProt P04070 43-461); experiment: inferred from APC generation assay on endothelial cells with E86A control
T1 construct: also called PC
Protocol: (§1) Protein C (100 nM) and thrombin (5 nM) were added with h-sEPCR^Snoop (1 μM) or h-sEPCR-E86A^Snoop (1 μM) an sEPCR variant unable to bind to PC/APC, then incubated for 30 minutes. […] The net effect of this restriction of APC generation. Statistical analysis of experimental data was performed using one-way ANOVA and Tukey's multiple comparison post hoc analysis. ns signifies non-significant, * signifies a p value of <0.05.
as §1, with “Assessment of h-sEPCR^Snoop Inhibition of Protein C Activation by the Thrombin-Thrombomodulin Complex on Endothelial Cells Protein” for “Protein”, “h-sEPCR-E86ASnoop” for “h-sEPCR-E86A^Snoop”, “<0.05 (see FIG. 5).” for “<0.05.”

protein C (zymogen) [2] = target: T1, protein C (zymogen); experiment: control in APC generation assay on endothelial cells (protein C 100 nM, thrombin 5 nM)
Protocol: as §1
as §1, with “Assessment of h-sEPCR^Snoop Inhibition of Protein C Activation by the Thrombin-Thrombomodulin Complex on Endothelial Cells Protein” for “Protein”, “h-sEPCR-E86ASnoop” for “h-sEPCR-E86A^Snoop”, “<0.05 (see FIG. 5).” for “<0.05.”

T1 sequence (P04070 43-461): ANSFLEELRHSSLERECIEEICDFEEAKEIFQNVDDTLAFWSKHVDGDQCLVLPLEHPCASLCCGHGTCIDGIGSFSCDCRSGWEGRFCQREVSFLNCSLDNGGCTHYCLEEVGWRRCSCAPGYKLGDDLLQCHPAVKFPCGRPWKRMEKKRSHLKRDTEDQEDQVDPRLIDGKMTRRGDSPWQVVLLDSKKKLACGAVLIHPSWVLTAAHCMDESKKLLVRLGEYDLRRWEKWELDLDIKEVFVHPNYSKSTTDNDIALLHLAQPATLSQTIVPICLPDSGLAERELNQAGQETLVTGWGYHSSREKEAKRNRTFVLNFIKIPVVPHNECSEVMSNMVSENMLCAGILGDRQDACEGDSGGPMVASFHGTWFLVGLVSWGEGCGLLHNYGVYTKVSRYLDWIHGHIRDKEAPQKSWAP

Binder	binding result (protein C (zymogen) [1])	binding result (protein C (zymogen) [2])
B1	binds	–
B2	–	no binding (tested: 1 µM)
